Among the data in publication PMC9485624 are stoichiometry N values, retold here.

Test [1] deals with recombinant truncated CrrB (135-353 amino acids) P151L mutant (Klebsiella pneumoniae). As to the kind of experiment: not stated; purified recombinant His-tagged protein after Ni-NTA; how dimer and monomer were told apart is not stated in the text (Supplementary Figure S1).
Test [2] deals with recombinant truncated CrrB (135-353 amino acids) (Klebsiella pneumoniae). The test is described as above.

Broadly, the stoichiometry N is the number of molecules, sites or subunits per partner or assembly.

Take “recombinant truncated CrrB (135-353 amino acids) P151L mutant (domain or fragment)”: in test [1], the stoichiometry N stood at 2.

“recombinant truncated CrrB (135-353 amino acids) (domain or fragment)”: the stoichiometry N in test [2] worked out at 2.
